Patent US20160152676A1 (COLORADO STATE UNIVERSITY RESEARCH FOUNDATION, published 2016)

B1: His6x-GLUE-Cpep (designed binder)
chain: MGSSHHHHHHSQDPGLNDIFEAQKIEWHEGGSGGSGGTEYWHYVETTSSGQPLLREGEKDIAIDQSVGLYHGKSKILQRQRGRIFLTSQRIIYIDDAKPTQNSLGLELDDLAYVNYSSGFLTRSPALILFFKDPSSSTEFVQLSFRKSDGVWFSWATEIALYTILIHSLIEESQNQQEKNEQELL
notes: Purified construct used in CD; also called helix-grafted GLUE
B2: FLAG-GLUE-Cpep (designed binder)
chain: MDYKDDDDKGGSEYWHYVETTSSGQPLLREGEKDIAIDQSVGLYHGKSKILQRQRGRIFLTSQRIIYIDDAKPTQNSLGLELDDLAYVNYSSGFLTRSPALILFFKDPSSSTEFVQLSFRKSDGVWFSWATEIALYTILIHSLIEESQNQQEKNEQELL
notes: Co-expressed with 5-Helix-His6x in E. coli; lysate ELISA; also called grafted GLUE; helix-grafted GLUE
B3: FLAG-CHR (peptide)
peptide: MDYKDDDDKGGSWMEWDREINNYTSLIHSLIEESQNQQEKNEQELL
notes: Co-expressed with 5-Helix-His6x in E. coli; also called C-peptide; native C-peptide
B4: FLAG-GLUE-Cpep (pET-28a construct, His6x-FLAG-GLUE-Cpep) (designed binder)
chain: MGSSHHHHHHSSGLVPRGSHMDYKDDDDKGGSEYWHYVETTSSGQPLLREGEKDIAIDQSVGLYHGKSKILQRQRGRIFLTSQRIIYIDDAKPTQNSLGLELDDLAYVNYSSGFLTRSPALILFFKDPSSSTEFVQLSFRKSDGVWFSWATEIALYTILIHSLIEESQNQQEKNEQELL
notes: Purified, pre-incubated with human serum, then tested in ELISA on biotinylated 5-helix
B5: GLUE-Cpep (untagged) (designed binder)
chain: MEYWHYVETTSSGQPLLREGEKDIAIDQSVGLYHGKSKILQRQRGRIFLTSQRIIYIDDAKPTQNSLGLELDDLAYVNYSSGFLTRSPALILFFKDPSSSTEFVQLSFRKSDGVWFSWATEIALYTILIHSLIEESQNQQEKNEQELL
notes: Co-expressed with 5-Helix-His6x in E. coli; also called untagged GLUE-Cpep
B6: FLAG-GLUE (other)
chain: MDYKDDDDKGGSEYWHYVETTSSGQPLLREGEKDIFIDQSVGLYHGKSKILQRQRGRIFLTSQRIIYIDDAKPTQNSLGLELDDLAYVNYSSGFLTRSPALILFFKDPSSSTEFVQLSFRKSDGVLFSQATERALENILT
notes: Co-expressed with 5-Helix-His6x in E. coli; lysate ELISA; also called wtGLUE; wt-GLUE

Legend:
[1] = target: T1, 5-Helix-His6x (HIV-1); assay: circular dichroism of a 1:1 mixture, wavelength scan and thermal melt
T1 construct: also called His6-tagged 5-helix; 5-Helix bundle

[2] = target: T1, 5-Helix-His6x; assay: ELISA on E. coli lysate, His6-tagged 5-helix captured on Ni-NTA plates, anti-FLAG detection
[3] = target: T2, AviTag-5-helix-His6x, biotinylated (HIV-1, biotin conjugated to the AviTag with BirA); assay: ELISA, biotinylated 5-helix on streptavidin plates, 50 nM GLUE-Cpep pre-incubated in human serum, anti-FLAG detection
T2 construct: also called Biotinylated 5-helix; AviTagged 5-helix; not shown: N-terminal AviTag and any linker

[4] = target: T1, 5-Helix-His6x; assay: Ni-NTA co-purification from E. coli lysate, densitometry of the protein bands

Row | Binder | binding result [2] | other results
1 | B1 | – | binding result [1]: binds
2 | B2 | binds | –
3 | B3 | binds | –
4 | B4 | – | binding result [3]: binds
5 | B5 | – | ratio of proteins in the complex (stoichiometry) [4]: 1 ratio (1:1)
6 | B6 | no binding | –
